Test results as given in the supplement of paper PMC9170038.

Tested on: MS2 coat protein
Assay: apparent KD of MS2 coat protein; designed switch direction (-1 OFF switch, 1 ON switch): -1; higher = weaker reporter binding
Outline: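 RNA switches sharing common flanks were transcribed by stalled E. coli RNA polymerase on Illumina chips. A doubling series of SNAP-549-labelled MS2 coat protein, from 0.7 or 1.5 nM to 3 µM, was applied in Tris-HCl pH 7.5 buffer with KCl, MgCl2, BSA, DTT, tRNA and Tween-20. Each step lasted 0.8–1.5 h at the bottom of the series and 10–20 min at the top. Normalised cluster fluorescence was curve-fitted, giving apparent KD as the per-design median over clusters.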

[1] = input ligand: microRNA oligo, concentration not stated
[2] = Eterna round: R95, input ligand: microRNA oligo, concentration not stated
[3] = Eterna round: R95, input ligand: FMN 200 uM
[4] = Eterna round: R95, input ligand: none

Sequence | apparent KD of MS2 coat protein (input ligand: FMN 200 uM) [nM] | apparent KD of MS2 coat protein [1] [nM] | apparent KD of MS2 coat protein (input ligand: none) [nM] | apparent KD of MS2 coat protein [2] [nM] | apparent KD of MS2 coat protein [3] [nM] | apparent KD of MS2 coat protein [4] [nM]
UCCAGUGAAGGAUAUGCACCAGGCAAUUGUAGGGUACUCAUACAUGAGGAUCACCCAUGUAGAAGGUCGCAGGC [Eternabot (L2) Solution 78] (Eterna round: R97, puzzle: Exclusion 2) | 32.4 | – | – | – | – | –
GCACGGAGUGUAGGAUAUCUGUGCGAUUAGCUCAGAGAAGGACACAUGAGGAUCACCCAUGUGUACCUCAACAUUAAUCCGUGC [Eli exng1 - 075] (Eterna round: R96, puzzle: Exclusion NG 1) | 10.1 | 6.62 | 10.1 | – | – | –
AAUAACAGAGGAUAUACUGUUUUAUGUAUUUAUUAUUUUAAACAUGAGGAUCACCCAUGUAGAAGGCUGAAUAA [JMF 12] (puzzle: Exclusion 2) | – | – | – | 19.1 | – | –
GUCACAUGGGUGUAGAAUCACAUGAGGAUCACCCAUGUGACUAACAAGCUUUUUGCUCGUCUUAUGUCUAUGUGAAA [Stov1/17-A1] (Eterna round: R97, puzzle: Sensor, turn-off variant 1) | 47.4 | – | 40.5 | – | – | –
AAAUUGGUAGAGGAUAUCGCACAGGAUUUACUGCGAGAAGGCUGCACAUGAGGAUCACCCAUGUUUAGUUGCGA [EX6 #36] (Eterna round: R97, puzzle: Exclusion 6) | 20.3 | – | 17.3 | – | – | –
AGUCGAAAGACAAAUAAAAACAUGAGGAUCACCCAUGUAAUGGGUGAAAACAAGCUCACCGUUCGUCUUAAAGAAAA [JL turnoff v1 57] (Eterna round: R96, puzzle: Sensor v2, turn-off variant) | 607 | 40.7 | 302 | – | – | –
ACAUGAGGAUCACCCAUGUAAUCAUGAUGGCUGAUGUAGAGCUAGGAUAUGAGUGGCUUUCUAUCUCAGAAGGAGCUAGACUGG [Deportation 41 - Jieux - Exclusion NG 3] (Eterna round: R96, puzzle: Exclusion NG 3) | 29.3 | 18.1 | 34.9 | – | – | –
GUAUCCGAGAAGGAUAUCAAUGGCCCGGACCACUGAGAAGGUCUCACAUGAGGAUCACCCAUGUCACAGGUGCA [Eternabot (Original) Solution 29] (Eterna round: R97, puzzle: Exclusion 6) | 74.1 | – | 70.3 | – | – | –
ACAUGAGGAUCACCCAUGUCCGUCUGAUCUGUCUCGGCUGUCGAGGAUAUAGCCCGGUAUCCGCGCUAGAAGGUGGGAGUCGGC [Aenatbe mod 99] (Eterna round: R96, puzzle: Exclusion NG 3) | 29.8 | 25.3 | 35.7 | – | – | –
AGUGCUAACACGUUGGUGUUAGUACCAUAAGCUUGUGAUACAUGAGGAUCACCCAUGUCCUCAUAAGCUCGUCUUAU [salish99_TOv2_r2_098] (puzzle: Sensor v3, turn-off variant 2) | – | – | – | 508 | 30.6 | 29.4
AAUAACAGAGGAUAUACUGUUUUAUGUGUUUAUUAUUUUGAACAUGAGGAUCACCCAUGUAGAAGGCUGAAUAA [JMF 21] (puzzle: Exclusion 2) | – | – | – | 22.2 | – | –
CGAGCUAGUGUGAGGAUAUACCUAUGGAUACAUAGGUAGAAGGCACAUGAGGAUCACCCAUGUCCUAUAGCUCG [jl-bmx4-4.56] (Eterna round: R97, puzzle: Brourd's mod of Exclusion 4) | 499 | – | 177 | – | – | –
UUGCCGCAAGGAUAUGCAGACAAGUACAAUACGUGUCUCGGACUUGAGGAUCACCCAAGUAGAAGGCUUUUUAU [LRO-Excl2-14-mod _r4_621 by salish99] (Eterna round: R97, puzzle: Exclusion 2) | 23.7 | – | 21.4 | – | – | –
AAGCAUUGCCAAAGGUAGUGCUUAACAUGAGGAUCACCCAUGUAGGAUAUGGUAGGCAAAGCUUACCAGAAGGACAUGAUAAUU [Mat - Exclusion NG 3 - Mod of JL - D14] (Eterna round: R96, puzzle: Exclusion NG 3) | 430 | 61.5 | 70.8 | – | – | –
CCUCUGUAAGGAUAUACGGAGACGGCUGGAAUCAGUGGAAAGUAGAAGGUACAUGAGGAUCACCCAUGUGAGAC [Anceleso] (puzzle: Exclusion 4) | – | – | – | 20.2 | – | –
UGCAAGCUUUUAAGAUCCUACAUGAGGAUCACCCAUGUGCUCGUCUUAUAACGUACUGUGACGAAAGUCACGGUACG [JL TOV1 3.95] (Eterna round: R97, puzzle: Sensor, turn-off variant 1) | 105 | – | 114 | – | – | –
AUGCCGAGUGUAGGAUAUGGCCCGGAACCACGGCCAGAAGGACAUGAGGAUCACCCAUGUGGCCCGAUAUACACGGUAUCAGAC [Eternabot solution 1] (Eterna round: R96, puzzle: Exclusion NG 1) | 44.7 | 17.7 | 24.4 | – | – | –

Sequence | apparent KD of MS2 coat protein (input ligand: FMN 200 uM) [nM] | apparent KD of MS2 coat protein [1] [nM] | apparent KD of MS2 coat protein (input ligand: none) [nM] | apparent KD of MS2 coat protein [2] [nM] | apparent KD of MS2 coat protein [3] [nM] | apparent KD of MS2 coat protein [4] [nM]
UAUUAGCAAGCGAGAUCCCACAUGAGGAUCACCCAUGUAAUAAGCAUCCAGAAUUACUGGGUGCAAGCUCGUCUUAU [Winner reversed engineered 10] (Eterna round: R97, puzzle: Sensor, turn-off variant 1) | 45.4 | – | 42.9 | – | – | –
GAAAAGGUAGGAUAUACGAAAAAAAAGGGUAGGAAAAAAACACAUGAGGAUCACCCAUGUAGAAGGACCAAAAG [salish99_ex2_r3_024] (puzzle: Exclusion 2) | – | – | – | 21.8 | 61.7 | 19.8
GCCGGUUAAGUCAGGAUAUACCUAUGGAUACAUAGGUAGAAGGGACAUGAGGAUCACCCAUGUUCCUCAUCGGC [Fiskers BMX 4 - 13] (puzzle: Brourd's mod of Exclusion 4) | – | – | – | 13.3 | – | –
AAGACUAGAGGAUAUACAUGAGGAUCACCCAUGUAACUGUCAGGUGACUGACGGAAAUGUAGAAGGCUAGUCAA [Mat - Exclusion 3 - JL mod - D81] (Eterna round: R96, puzzle: Exclusion 3) | 54.2 | 13.6 | 16.8 | – | – | –
CGGCAUGUCUGAGGAUAUCUGCACGAUUAGUGCAGAGAAGGCAGAACAUGAGGAUCACCCAUGUAGAUCAUUAACCGAUUAAUU [ENG1/7-A1] (Eterna round: R96, puzzle: Exclusion NG 1) | 275 | 127 | 194 | – | – | –
GGCCCGCGCGGGCCCGGGCCCGGGACAUGAGGAUCACCCAUGUAGGAUAUCCGGCCCGCCGGGCCGGAGAAGGACAUGGGCCCG [-48.9, -45.2 kcal, 17% A] (Eterna round: R96, puzzle: Exclusion NG 3) | 34.1 | 11.1 | 16.9 | – | – | –
GAGGAUAGAGGAUAUGCAUAGAUACGGAUUCGUGUAGUACUACAUGAGGAUCACCCAUGUAGAAGGCUGUCCAG [Mat - Exclusion 2 - Mod of JL - D75] (puzzle: Exclusion 2) | – | – | – | 12.8 | – | –
ACGAGCUUUUUGCUCGUUUACAUGAGGAUCACCCAUGUGUCUUCGCGCCCGGGCCCGGGCGGGCCCGGGCCCGGGCG [-52.9, -56.9, A 10%] (Eterna round: R97, puzzle: Sensor, turn-off variant 1) | 50.6 | – | 57.6 | – | – | –
GCUGCAUCAGGAUAUAUACGGUAUCACAUGAGGAUCACCCAUGUUCGUGUGGAACUGAACGUAGAAGGGAUUAGAU [Aramaa] (puzzle: Exclusion 5) | – | – | – | 28.3 | 31.1 | 24.5
GGGACACAUGAGGAUCACCCAUGUGAGGAUAUGUUAGUUUCGGCCAAAGCCGAAAUUAACAGAAGGCACAUACC [JR_Exclusion1_Sub020] (puzzle: Exclusion 1) | – | – | – | 35.7 | – | –
ACAUGAGGAUCACCCAUGUGAAAACAAUGGCUGACUAAGAGAUAGGAUAUAUGUGCAUAUCAAACAUAGAAGGGUCAUUACUGG [Deportation 88 - Jieux - Exclusion NG 3] (Eterna round: R96, puzzle: Exclusion NG 3) | 36.1 | 25.3 | 37.2 | – | – | –
AGAUCACAUGAGGAUCACCCAUGUCAGGAUAUCAUCAUUGAAGCUUCGGCUUCAAUGAUGAGAAGGGACAUAAU [E1/2-B1] (Eterna round: R97, puzzle: Exclusion 1) | 297 | – | 598 | – | – | –
GUGGGUUACAUGAGGAUCACCCAUGUAGAGUGGGAAGAGAGAUAGGAUAUGAUGUGAGAAUCAUAUCAGAAGGAUCGAGACUCG [AK ExNG3-2.3] (Eterna round: R96, puzzle: Exclusion NG 3) | 512 | 158 | 354 | – | – | –
CCUAGUUGGUAAGGAUAUCCUACACUGUUCUGACCCGGGCAUGCUACAUGAGGAUCACCCAUGUGGGAGAAGGUGCGUCAACGC [Design 14] (Eterna round: R96, puzzle: Exclusion NG 2) | 36.8 | 19.3 | 30.6 | – | – | –
GAUGAGAGAGGAUAUACAUGAGGAUCACCCAUGUAAUUUUCGGACAUGGAAGCCUGAUGUAGAAGGCUCGCAUG [Usmaercele] (puzzle: Exclusion 3) | – | – | – | 76.3 | – | –
GGGAAGAACCAACAAGUUAACAUGAGGAUCACCCAUGUUGACUUCAUGUGCACGCAAAGCGUGCAAGCUCGUCUUAU [AK-miRNA-r3-15] (Eterna round: R97, puzzle: Sensor, turn-off variant 1) | 17.9 | – | 17.2 | – | – | –
AGUUUACAUGAGGAUCACCCAUGUGAGGAUAUGGAUUCGCUGGCCGUAGCCAGUGGAUCCAGAAGGCGCGUGAU [JL-ex1-4.29] (Eterna round: R97, puzzle: Exclusion 1) | 186 | – | 101 | – | – | –
